According to article PMC10786891, “Massively parallel profiling of RNA-targeting CRISPR-Cas13d”:

T1: EsCas13d, nuclease-dead (Eubacterium siraeum, UniProt B0MS50, R295A;H300A;R849A;H854A)
T1 sequence: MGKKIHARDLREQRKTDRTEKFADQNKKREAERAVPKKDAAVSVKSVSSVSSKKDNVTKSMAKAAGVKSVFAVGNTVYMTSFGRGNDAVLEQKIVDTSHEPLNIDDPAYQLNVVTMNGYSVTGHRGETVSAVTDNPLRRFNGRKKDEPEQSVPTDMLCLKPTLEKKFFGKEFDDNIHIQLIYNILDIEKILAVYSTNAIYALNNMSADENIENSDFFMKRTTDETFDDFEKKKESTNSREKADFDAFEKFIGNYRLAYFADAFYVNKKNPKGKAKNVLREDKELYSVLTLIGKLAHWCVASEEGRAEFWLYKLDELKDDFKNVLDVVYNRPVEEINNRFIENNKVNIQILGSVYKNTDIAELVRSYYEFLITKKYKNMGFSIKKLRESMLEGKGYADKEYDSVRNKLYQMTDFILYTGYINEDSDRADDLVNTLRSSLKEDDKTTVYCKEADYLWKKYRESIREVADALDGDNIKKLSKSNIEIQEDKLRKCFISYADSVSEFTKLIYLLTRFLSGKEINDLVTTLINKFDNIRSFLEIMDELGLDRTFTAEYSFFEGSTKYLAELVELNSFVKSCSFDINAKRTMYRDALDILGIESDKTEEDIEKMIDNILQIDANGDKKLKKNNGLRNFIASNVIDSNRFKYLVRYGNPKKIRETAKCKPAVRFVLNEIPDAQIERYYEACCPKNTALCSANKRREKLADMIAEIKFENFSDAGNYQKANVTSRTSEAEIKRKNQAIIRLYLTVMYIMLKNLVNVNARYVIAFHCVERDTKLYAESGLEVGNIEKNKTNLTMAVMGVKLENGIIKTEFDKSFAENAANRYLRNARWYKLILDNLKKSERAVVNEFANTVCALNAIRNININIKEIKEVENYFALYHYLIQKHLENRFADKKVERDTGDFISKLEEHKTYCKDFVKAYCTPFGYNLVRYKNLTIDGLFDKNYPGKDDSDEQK

B1: target 1 C6G,G12C (mixed)
RNA 1: CACCCGUGCAAAAAUGCAGGGGUCUAAAACUGAGCGGAUAACCUCUCUAUGG
RNA 2: GGGAAUGGAUCCACAUCUACGAAUUCGUACCAUAGAGAGCUUAUCGGCUCACCGAGAUCGGAAGAGCACACGU
B2: target 1 C7G,G15A (mixed)
RNA 1: CACCCGUGCAAAAAUGCAGGGGUCUAAAACUGAGCGGAUAACCUCUCUAUGG
RNA 2: GGGAAUGGAUCCACAUCUACGAAUUCGUACCAUAGAAAGGUUAUGCGCUCACCGAGAUCGGAAGAGCACACGU
B3: target 1 insU 3' of 21 (mixed)
RNA 1: CACCCGUGCAAAAAUGCAGGGGUCUAAAACUGAGCGGAUAACCUCUCUAUGG
RNA 2: GGGAAUGGAUCCACAUCUACGAAUUCGUACCUAUAGAGAGGUUAUCCGCUCACCGAGAUCGGAAGAGCACACGU
B4: target 1 complement block 6-10 (mixed)
RNA 1: CACCCGUGCAAAAAUGCAGGGGUCUAAAACUGAGCGGAUAACCUCUCUAUGG
RNA 2: GGGAAUGGAUCCACAUCUACGAAUUCGUACCAUAGAGAGGUAUAGGGCUCACCGAGAUCGGAAGAGCACACGU
B5: target 1 insA 3' of 4,insU 3' of 1 (mixed)
RNA 1: CACCCGUGCAAAAAUGCAGGGGUCUAAAACUGAGCGGAUAACCUCUCUAUGG
RNA 2: GGGAAUGGAUCCACAUCUACGAAUUCGUACCAUAGAGAGGUUAUCCGCAUCAUCCGAGAUCGGAAGAGCACACGU
B6: target 1 insA 3' of 15,insC 3' of 1 (mixed)
RNA 1: CACCCGUGCAAAAAUGCAGGGGUCUAAAACUGAGCGGAUAACCUCUCUAUGG
RNA 2: GGGAAUGGAUCCACAUCUACGAAUUCGUACCAUAGAGAAGGUUAUCCGCUCACCCGAGAUCGGAAGAGCACACGU
B7: target 1 C7G,A9U (mixed)
RNA 1: CACCCGUGCAAAAAUGCAGGGGUCUAAAACUGAGCGGAUAACCUCUCUAUGG
RNA 2: GGGAAUGGAUCCACAUCUACGAAUUCGUACCAUAGAGAGGUUUUGCGCUCACCGAGAUCGGAAGAGCACACGU
B8: target 1 insA 3' of 15,insA 3' of 2 (mixed)
RNA 1: CACCCGUGCAAAAAUGCAGGGGUCUAAAACUGAGCGGAUAACCUCUCUAUGG
RNA 2: GGGAAUGGAUCCACAUCUACGAAUUCGUACCAUAGAGAAGGUUAUCCGCUCAACCGAGAUCGGAAGAGCACACGU
B9: target 1 C7U,G12C (mixed)
RNA 1: CACCCGUGCAAAAAUGCAGGGGUCUAAAACUGAGCGGAUAACCUCUCUAUGG
RNA 2: GGGAAUGGAUCCACAUCUACGAAUUCGUACCAUAGAGAGCUUAUUCGCUCACCGAGAUCGGAAGAGCACACGU
B10: target 1 insA 3' of 15,insG 3' of 1 (mixed)
RNA 1: CACCCGUGCAAAAAUGCAGGGGUCUAAAACUGAGCGGAUAACCUCUCUAUGG
RNA 2: GGGAAUGGAUCCACAUCUACGAAUUCGUACCAUAGAGAAGGUUAUCCGCUCAGCCGAGAUCGGAAGAGCACACGU
B11: target 1 U10G,G12A (mixed)
RNA 1: CACCCGUGCAAAAAUGCAGGGGUCUAAAACUGAGCGGAUAACCUCUCUAUGG
RNA 2: GGGAAUGGAUCCACAUCUACGAAUUCGUACCAUAGAGAGAUGAUCCGCUCACCGAGAUCGGAAGAGCACACGU
B12: target 1 U3G,C21A (mixed)
RNA 1: CACCCGUGCAAAAAUGCAGGGGUCUAAAACUGAGCGGAUAACCUCUCUAUGG
RNA 2: GGGAAUGGAUCCACAUCUACGAAUUCGUACAAUAGAGAGGUUAUCCGCGCACCGAGAUCGGAAGAGCACACGU
B13: target 1 del7,del9 (mixed)
RNA 1: CACCCGUGCAAAAAUGCAGGGGUCUAAAACUGAGCGGAUAACCUCUCUAUGG
RNA 2: GGGAAUGGAUCCACAUCUACGAAUUCGUACCAUAGAGAGGUUUCGCUCACCGAGAUCGGAAGAGCACACGU
B14: target 1 insC 3' of 14,insU 3' of 4 (mixed)
RNA 1: CACCCGUGCAAAAAUGCAGGGGUCUAAAACUGAGCGGAUAACCUCUCUAUGG
RNA 2: GGGAAUGGAUCCACAUCUACGAAUUCGUACCAUAGAGACGGUUAUCCGCUUCACCGAGAUCGGAAGAGCACACGU
B15: target 1 C6G,A16G (mixed)
RNA 1: CACCCGUGCAAAAAUGCAGGGGUCUAAAACUGAGCGGAUAACCUCUCUAUGG
RNA 2: GGGAAUGGAUCCACAUCUACGAAUUCGUACCAUAGGGAGGUUAUCGGCUCACCGAGAUCGGAAGAGCACACGU
B16: target 1 U8C,G17C (mixed)
RNA 1: CACCCGUGCAAAAAUGCAGGGGUCUAAAACUGAGCGGAUAACCUCUCUAUGG
RNA 2: GGGAAUGGAUCCACAUCUACGAAUUCGUACCAUACAGAGGUUACCCGCUCACCGAGAUCGGAAGAGCACACGU
B17: target 1 A14G,A16C (mixed)
RNA 1: CACCCGUGCAAAAAUGCAGGGGUCUAAAACUGAGCGGAUAACCUCUCUAUGG
RNA 2: GGGAAUGGAUCCACAUCUACGAAUUCGUACCAUAGCGGGGUUAUCCGCUCACCGAGAUCGGAAGAGCACACGU
B18: target 1 C7G,G17U (mixed)
RNA 1: CACCCGUGCAAAAAUGCAGGGGUCUAAAACUGAGCGGAUAACCUCUCUAUGG
RNA 2: GGGAAUGGAUCCACAUCUACGAAUUCGUACCAUAUAGAGGUUAUGCGCUCACCGAGAUCGGAAGAGCACACGU
B19: target 1 insA 3' of 22,insA 3' of 2 (mixed)
RNA 1: CACCCGUGCAAAAAUGCAGGGGUCUAAAACUGAGCGGAUAACCUCUCUAUGG
RNA 2: GGGAAUGGAUCCACAUCUACGAAUUCGUACACAUAGAGAGGUUAUCCGCUCAACCGAGAUCGGAAGAGCACACGU
B20: target 1 insA 3' of 22,insC 3' of 1 (mixed)
RNA 1: CACCCGUGCAAAAAUGCAGGGGUCUAAAACUGAGCGGAUAACCUCUCUAUGG
RNA 2: GGGAAUGGAUCCACAUCUACGAAUUCGUACACAUAGAGAGGUUAUCCGCUCACCCGAGAUCGGAAGAGCACACGU
B21: target 1 insG 3' of 11,insA 3' of 10 (mixed)
RNA 1: CACCCGUGCAAAAAUGCAGGGGUCUAAAACUGAGCGGAUAACCUCUCUAUGG
RNA 2: GGGAAUGGAUCCACAUCUACGAAUUCGUACCAUAGAGAGGUGUAAUCCGCUCACCGAGAUCGGAAGAGCACACGU
B22: target 1 insG 3' of 6,insA 3' of 4 (mixed)
RNA 1: CACCCGUGCAAAAAUGCAGGGGUCUAAAACUGAGCGGAUAACCUCUCUAUGG
RNA 2: GGGAAUGGAUCCACAUCUACGAAUUCGUACCAUAGAGAGGUUAUCCGGCAUCACCGAGAUCGGAAGAGCACACGU
B23: target 1 insC 3' of 22,insG 3' of 14 (mixed)
RNA 1: CACCCGUGCAAAAAUGCAGGGGUCUAAAACUGAGCGGAUAACCUCUCUAUGG
RNA 2: GGGAAUGGAUCCACAUCUACGAAUUCGUACCCAUAGAGAGGGUUAUCCGCUCACCGAGAUCGGAAGAGCACACGU
B24: target 1 insA 3' of 4,insA 3' of 2 (mixed)
RNA 1: CACCCGUGCAAAAAUGCAGGGGUCUAAAACUGAGCGGAUAACCUCUCUAUGG
RNA 2: GGGAAUGGAUCCACAUCUACGAAUUCGUACCAUAGAGAGGUUAUCCGCAUCAACCGAGAUCGGAAGAGCACACGU
B25: target 1 insA 3' of 15,insU 3' of 1 (mixed)
RNA 1: CACCCGUGCAAAAAUGCAGGGGUCUAAAACUGAGCGGAUAACCUCUCUAUGG
RNA 2: GGGAAUGGAUCCACAUCUACGAAUUCGUACCAUAGAGAAGGUUAUCCGCUCAUCCGAGAUCGGAAGAGCACACGU
B26: target 1 insA 3' of 4,insC 3' of 1 (mixed)
RNA 1: CACCCGUGCAAAAAUGCAGGGGUCUAAAACUGAGCGGAUAACCUCUCUAUGG
RNA 2: GGGAAUGGAUCCACAUCUACGAAUUCGUACCAUAGAGAGGUUAUCCGCAUCACCCGAGAUCGGAAGAGCACACGU
B27: target 1 U11A,G12A (mixed)
RNA 1: CACCCGUGCAAAAAUGCAGGGGUCUAAAACUGAGCGGAUAACCUCUCUAUGG
RNA 2: GGGAAUGGAUCCACAUCUACGAAUUCGUACCAUAGAGAGAAUAUCCGCUCACCGAGAUCGGAAGAGCACACGU
B28: target 1 insC 3' of 22,insU 3' of 9 (mixed)
RNA 1: CACCCGUGCAAAAAUGCAGGGGUCUAAAACUGAGCGGAUAACCUCUCUAUGG
RNA 2: GGGAAUGGAUCCACAUCUACGAAUUCGUACCCAUAGAGAGGUUAUUCCGCUCACCGAGAUCGGAAGAGCACACGU

Target: T1, EsCas13d, nuclease-dead
Test: crRNA (strand 1, pre-loaded); Mg2+; 40 mM Tris-HCl pH 7.5, 150 mM NaCl, 6 mM MgCl2, 1 mM DTT, 0.1% Tween-20, 0.2 mg/ml BSA; 25 C; 10 min per concentration, then washed
Conditions: tags: His6-TwinStrep-SUMO cleaved; N-terminal SNAP kept (SNAP-Surface 488); label: 3' end held by stalled T7 RNA polymerase

Question: Which Kd does the source give for B1 here?
Answer: 15.1 ± 0.7 nM

Question: For B2, which Kd is on record?
Answer: 22.5 ± 1.6 nM

Question: How did the Kd turn out when B3 was run?
Answer: 24 ± 1.6 nM

Question: How did the Kd turn out when B4 was run?
Answer: 10.1 ± 0.6 nM

Question: For B5, which Kd is on record?
Answer: 7 ± 0.6 nM

Question: For B6, which Kd is on record?
Answer: 7.1 ± 0.8 nM

Question: For B7, which Kd is on record?
Answer: 7.61 ± 0.27 nM

Question: B8 was tested. Which Kd did it give?
Answer: 6.4 ± 0.4 nM

Question: For B9, which Kd is on record?
Answer: 9.7 ± 0.7 nM

Question: B10 was tested. Which Kd did it give?
Answer: 5.96 ± 0.32 nM

Question: How did the Kd turn out when B11 was run?
Answer: 32.9 ± 2.7 nM

Question: For B12, which Kd is on record?
Answer: 41 ± 14 nM

Question: B13 was tested. Which Kd did it give?
Answer: 12.3 ± 0.9 nM

Question: For B14, which Kd is on record?
Answer: 43 ± 4 nM

Question: B15 was tested. Which Kd did it give?
Answer: 31.8 ± 1.6 nM

Question: B16 was tested. Which Kd did it give?
Answer: 90 ± 32 nM

Question: B17 was tested. Which Kd did it give?
Answer: 67 ± 11 nM

Question: B18 was tested. Which Kd did it give?
Answer: 35 ± 5 nM

Question: With B19 as the binder, how does the Kd read?
Answer: 12.7 ± 0.5 nM

Question: B20 was tested. Which Kd did it give?
Answer: 12.8 ± 0.8 nM

Question: Which Kd does the source give for B21 here?
Answer: 21.5 ± 2.4 nM

Question: B22 was tested. Which Kd did it give?
Answer: 6.9 ± 0.4 nM

Question: Which Kd does the source give for B23 here?
Answer: 47 ± 5 nM

Question: For B24, which Kd is on record?
Answer: 6.2 ± 0.5 nM

Question: With B25 as the binder, how does the Kd read?
Answer: 6.7 ± 0.7 nM

Question: For B26, which Kd is on record?
Answer: 18.9 ± 3.3 nM

Question: For B27, which Kd is on record?
Answer: 4 ± 0.29 nM

Question: How did the Kd turn out when B28 was run?
Answer: 30 ± 5 nM
